Data as given in article PMC4467794 (Cell, 2015).

Target: T1, Mcx1^Y174A-3xFLAG (pore-1 loop Y174A), purified recombinant (S. cerevisiae, UniProt P38323 14-520, Y174A)
T1 sequence (looked up): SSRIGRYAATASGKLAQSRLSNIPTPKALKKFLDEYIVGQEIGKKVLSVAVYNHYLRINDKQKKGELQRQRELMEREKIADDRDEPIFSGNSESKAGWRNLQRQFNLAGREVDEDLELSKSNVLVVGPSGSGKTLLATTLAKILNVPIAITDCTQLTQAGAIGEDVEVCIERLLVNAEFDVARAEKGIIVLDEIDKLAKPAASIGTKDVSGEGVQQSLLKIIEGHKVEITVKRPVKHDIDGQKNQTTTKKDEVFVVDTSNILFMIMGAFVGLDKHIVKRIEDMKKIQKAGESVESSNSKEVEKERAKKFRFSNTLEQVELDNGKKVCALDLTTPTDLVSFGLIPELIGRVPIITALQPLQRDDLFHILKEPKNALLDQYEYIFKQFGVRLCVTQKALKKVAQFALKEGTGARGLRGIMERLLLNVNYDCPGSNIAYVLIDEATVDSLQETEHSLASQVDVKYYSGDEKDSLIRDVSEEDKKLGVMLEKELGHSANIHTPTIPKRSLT
Assay: co-IP

B1: apoHem1 (PLP-free Hem1, yeast ALA synthase), purified recombinant (enzyme)
chain: not shown
  fold amount bound relative to holoHem1: ~10 fold
